Test results: US20240043533A1 (NGM BIOPHARMACEUTICALS, published 2024)

T1: extracellular domain of cyno ILT3 (cynoILT3-ECD) (cynomolgus monkey)
T1 chain: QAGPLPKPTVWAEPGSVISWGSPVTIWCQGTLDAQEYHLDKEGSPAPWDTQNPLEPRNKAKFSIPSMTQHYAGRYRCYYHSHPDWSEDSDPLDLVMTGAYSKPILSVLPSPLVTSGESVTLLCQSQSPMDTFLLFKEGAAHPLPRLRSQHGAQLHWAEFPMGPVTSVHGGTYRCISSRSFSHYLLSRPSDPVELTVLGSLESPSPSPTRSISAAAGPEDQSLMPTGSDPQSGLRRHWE


Legend:
[1] = biological target: T1, extracellular domain of cyno ILT3 …; experiment: SPR (Biacore), antibody captured via anti-Fc on CM5 chip, soluble ILT3-ECD injected, 37 C
Procedure: (§1) The binding affinities of anti-ILT3 antibodies to human ILT3 and cyno ILT3 were measured using a Biacore system (GE Healthcare LifeSciences). Briefly, anti-Fc antibody (Sigma-Aldrich) was immobilized on all four flow cells of a CM5 chip using amine coupling reagents (GE Healthcare LifeSciences). Antibodies were captured on flow cells 2, 3, and 4 using flow cell 1 as a reference. Concentrations ranging from 3.3-10 nM of human or cyno ILT3-ECD were injected at a flow rate of 50 μL/min at 37° C. Kinetic data were collected over time and fit using the simultaneous global fit equation to yield affinity constants (KD values) for each antibody.

[2] = biological target: T2, extracellular domain of human ILT3 (huILT3-ECD) (human, UniProt Q8NHJ6 22-259); experiment: as above
T2 construct: also called human ILT3-ECD
Procedure: as §1

[3] = biological target: T1, extracellular domain of cyno ILT3 …; experiment: SPR (Biacore), antibody captured via anti-Fc on CM5 chip, soluble ILT3-ECD injected
Procedure: as §1
(§2) The binding affinities of various Hz48A6 and Hz45G10 antibodies to human ILT3 and cyno ILT3 were also determined using a Biacore system as described herein. Humanized antibodies comprising various combinations of a heavy chain variable region and a light chain variable region and a human Fc domain were tested, and compared with the binding affinity of the parental chimeric antibody (48A6 chimera comprising mouse 48A6 heavy and light variable regions and a human Fc domain, or 45G10 chimera comprising mouse 45G10 heavy and light variable regions and a human Fc domain).

[4] = biological target: T2, extracellular domain of human ILT3 …; experiment: as above
Procedure: as §1, §2

[5] = biological target: T1, extracellular domain of cyno ILT3 …; experiment: SPR (Biacore), antibody captured via anti-Fc on CM5 chip, soluble ILT3-ECD injected, 37 C
Procedure: as §1
(§3) The binding affinity of Hz5A7.v5 to human ILT3 and cyno ILT3 was determined using a Biacore system as described herein and compared with the binding affinity of the parental chimeric 5A7 (ch5A7) antibody and humanized 5A7 without any CDR modifications (Hz5A7.v1) (see Table 12).

[6] = biological target: T2, extracellular domain of human ILT3 …; experiment: as above; remark: listed apart in the source
Procedure: as §1, §3

| Binder | Kd [3] [nM] | koff [3] [s⁻¹] | kon [3] [M⁻¹ s⁻¹] | Kd [4] [nM] | koff [4] [s⁻¹] | kon [4] [M⁻¹ s⁻¹] | further results |
| --- | --- | --- | --- | --- | --- | --- | --- |
| anti-ILT3 antibody 3A3 (antibody, V domains shown, Mouse monoclonal antibody from hybridoma) VH: QVQLKESGPGLVAPSQSLSITCTVSGFSLTSYGVHWVRQPPGKGLEWLGVIWPGGTINYNSALMSRLSISKDNSKSQVFLKLNSLQTDDTAMYYCASDKYDGGWFAYWGQGTLVTVSA VL: DIVMTQSQKFMSTSVGDRVSITCKASQNVRTAVAWYQQKPGQSPEALIYLASNRHTGVPDRFTGSGSGTDFSLSISNVQSEDLADYFCLQHLNYPLTFGSGTKLEIK | – | – | – | – | – | – | Kd [1]: 6.3 nM; koff [1]: 0.021 s⁻¹; kon [1]: 3.4e+06 M⁻¹ s⁻¹; Kd [2]: 2 nM; koff [2]: 0.00065 s⁻¹; kon [2]: 330000 M⁻¹ s⁻¹ |
| Hz45G10 A2/A4 (antibody, V domains shown) VH: EVQLVESGGGLVQPGGSLRLSCAASGFTFSDYGMHWVRQAPGKGLEWVAYIFSGSSTIYYADTVKGRFTISRDNAKNSLYLQMNSLRAEDTAVYYCARADGRGAMDYWGQGTTVTVSS VL: DIQMTQSPSSLSASVGDRVTITCRASQDISKFLNWYQQKPGKAPKLLIYYTSRLHSGVPSRFSGSGSGTDFTFTISSLQPEDIATYFCQQGNTLPWTFGGGTKLEIK | 113 | 0.02 | 190000 | 0.2 | 0.00028 | 1.4e+06 | – |
| anti-ILT3 antibody 45G10 (antibody, V domains shown, Mouse monoclonal antibody from hybridoma) VH: EVQLVESGGGLVKPGGSLKLSCAASGFTFSDYGMHWVRQAPEKGLEWVAYIFSGSSTIYYADTVKGRFTISRDNAKNTLFLQMTSLRSEDTAMYYCARADGRGAMDYWGQGTSVTVSS VL: DVQMTQTTSSLSASLGDRVTISCRASQDISKFLNWYQQKPDGTVTLLIYYTSRLHSGVPSRFSGSGSGTDYSLTISNLDQEDIATYFCQQGNTLPWTFGGGTKLEIK | – | – | – | – | – | – | Kd [1]: 5 nM; koff [1]: 0.00076 s⁻¹; kon [1]: 150000 M⁻¹ s⁻¹; Kd [2]: 0.13 nM; koff [2]: 5.1e-05 s⁻¹; kon [2]: 390000 M⁻¹ s⁻¹ |
| Hz45G10 B1/A4 (antibody, V domains shown) VH: EVQLVESGGGLVKPGGSLRLSCAASGFTFSDYGMHWVRQAPGKGLEWVSYIFSGSSTIYYADTVKGRFTISRDNAKNSLYLQMNSLRAEDTAVYYCARADGRGAMDYWGQGTLVTVSS VL: DIQMTQSPSSLSASVGDRVTITCRASQDISKFLNWYQQKPGKAPKLLIYYTSRLHSGVPSRFSGSGSGTDFTFTISSLQPEDIATYFCQQGNTLPWTFGGGTKLEIK | 76 | 0.09 | 1.2e+06 | 0.2 | 0.00026 | 1.3e+06 | – |
| anti-ILT3 antibody 12A12 (antibody, V domains shown, Mouse monoclonal antibody from hybridoma) VH: EVQLQQSGPELVKPGASVKISCKASGYTFTDYNMDWVKQSHGKSLEWIGYIYPNNGGTGYNQKFNSKATLTVDKSSSTAYMELHSLTSEDSAVYYCASSPYYDYVGSYAMDYWGQGTSVTVSS VL: QIVLTQSPAIMSASLGERVTMTCTASSSVSSSYLHWYQQKPGSSPKLWIYSTSNLASGVPARFSGSGSGTSYSLTISSMEAEDAATYYCHQYHRSPRTFGGGTKLEIK | – | – | – | – | – | – | Kd [1]: 1.9 nM; koff [1]: 0.00028 s⁻¹; kon [1]: 150000 M⁻¹ s⁻¹; Kd [2]: 8.5 nM; koff [2]: 0.00094 s⁻¹; kon [2]: 110000 M⁻¹ s⁻¹ |
| Hz48A6 C1/C2 (antibody, V domains shown) VH: EVQLVESGGGLVQPGGSLRLSCAASGFTFSSYGMSWVRQAPGKGLEWVATISSGGTYTFYPDSVKGRFTISRDNSKNTLYLQMNSLRAEDTAVYYCARRGWLLHYYAMDYWGQGTLVTVSS VL: DIQLTQSPSFLSASVGDRVTITCRPSESVDSFGNSFMHWFQQKPGKAPKLLIYLSSKLESGVPSRFSGSGSGTEFTLTISSLQPEDFATYYCQQHNEDPFTFGQGTKVEIK | 770 | 0.088 | 114000 | 0.26 | 0.000705 | 2.72e+06 | – |
| Hz5A7.v1 (humanized 5A7 without any CDR modifications) (antibody, V domains shown) VH: EVQLVESGGGLVQPGGSLRLSCAASGFTFSSYGMSWVRQAPGKGLEWVATISGGGSYTNYPDSVKGRFTISRDNAKNSLYLQMNSLRAEDTAVYYCARREWRMTLYAMDYWGQGTTVTVSS VL: DIQLTQSPSFLSASVGDRVTITCRASESVDSYGNSFMHWYQQKPGKAPKLLIYLTSNLESGVPSRFSGSGSGTEFTLTISSLQPEDFATYYCQQNNEDPFTFGQGTKLEIK | – | – | – | – | – | – | Kd [5]: 0.65 nM; koff [5]: 0.0077 s⁻¹; kon [5]: 1.2e+07 M⁻¹ s⁻¹; Kd [6]: 0.48 nM; koff [6]: 0.0012 s⁻¹; kon [6]: 2.5e+06 M⁻¹ s⁻¹ |
| Hz48A6 C0/C2 (antibody, V domains shown) VH: EVQLVESGGGLVQPGGSLRLSCAASGFTFSSYGMSWVRQAPGKGLEWVGTISSGGTYTFYPDSVKGRFTISRDNSKNTLYLQMNSLRAEDTAVYYCARRGWLLHYYAMDYWGQGTLVTVSS VL: DIQLTQSPSFLSASVGDRVTITCRPSESVDSFGNSFMHWFQQKPGKAPKLLIYLSSKLESGVPSRFSGSGSGTEFTLTISSLQPEDFATYYCQQHNEDPFTFGQGTKVEIK | 177 | 0.058 | 327000 | 0.16 | 0.000541 | 3.45e+06 | – |
| Hz48A6 B0/C2 (antibody, V domains shown) VH: EVQLVESGGGLVQPGGSLRLSCAASGFTFSSYGMSWVRQAPGKGLEWVATISSGGTYTFYPDSVKGRFTISRDNAKNSLYLQMNSLRAEDTAVYYCARRGWLLHYYAMDYWGQGTSVTVSS VL: DIQLTQSPSFLSASVGDRVTITCRPSESVDSFGNSFMHWFQQKPGKAPKLLIYLSSKLESGVPSRFSGSGSGTEFTLTISSLQPEDFATYYCQQHNEDPFTFGQGTKVEIK | 455 | 0.097 | 213000 | 0.28 | 0.000784 | 2.8e+06 | – |

Further lines, with some results ahead:

| Kd [3] [nM] | koff [3] [s⁻¹] | kon [3] [M⁻¹ s⁻¹] | Kd [4] [nM] | koff [4] [s⁻¹] | kon [4] [M⁻¹ s⁻¹] | Binder | further results |
| --- | --- | --- | --- | --- | --- | --- | --- |
| 37 | 0.015 | 410000 | 0.14 | 0.00034 | 2.3e+06 | 45G10 chimera (antibody, V domains shown, also called parental chimeric 45G10) VH: EVQLVESGGGLVKPGGSLKLSCAASGFTFSDYGMHWVRQAPEKGLEWVAYIFSGSSTIYYADTVKGRFTISRDNAKNTLFLQMTSLRSEDTAMYYCARADGRGAMDYWGQGTSVTVSS VL: DVQMTQTTSSLSASLGDRVTISCRASQDISKFLNWYQQKPDGTVTLLIYYTSRLHSGVPSRFSGSGSGTDYSLTISNLDQEDIATYFCQQGNTLPWTFGGGTKLEIK | – |
| 54 | 0.11 | 1.99e+06 | 0.066 | 0.000868 | 1.31e+07 | 48A6 chimera (antibody, V domains shown, also called parental chimeric 48A6) VH: EVQLVESGGDLMKPGGSLKLSCAASGFTFSSYGMSWVRQTPDKRLEWVATISSGGTYTFYPDSVKGRFTISRDNAKNTLYLQMSSLKSEDTAMYYCARRGWLLHYYAMDYWGQGTSVTVSS VL: NIVLTQSPASLAVSLGQRATISCRPSESVDSFGNSFMHWFQQKPGQPPKLLIYLSSKLESGVPARFSGSGSRTDFTLTIDPVEADDAATYYCQQHNEDPFTFGSGTKLEIK | – |
| 531 | 0.092 | 174000 | 0.25 | 0.000764 | 3.05e+06 | Hz48A6 B1/C2 (antibody, V domains shown) VH: EVQLVESGGGLMQPGGSLRLSCAASGFTFSSYGMSWVRQAPGKGLEWVATISSGGTYTFYPDSVKGRFTISRDNAKNSLYLQMNSLRAEDTAVYYCARRGWLLHYYAMDYWGQGTSVTVSS VL: DIQLTQSPSFLSASVGDRVTITCRPSESVDSFGNSFMHWFQQKPGKAPKLLIYLSSKLESGVPSRFSGSGSGTEFTLTISSLQPEDFATYYCQQHNEDPFTFGQGTKVEIK | – |
| 377 | 0.082 | 217000 | 0.24 | 0.000752 | 3.06e+06 | Hz48A6 C2/C2 (antibody, V domains shown) VH: EVQLVESGGGLMQPGGSLRLSCAASGFTFSSYGMSWVRQAPGKGLEWVATISSGGTYTFYPDSVKGRFTISRDNSKNTLYLQMNSLRAEDTAVYYCARRGWLLHYYAMDYWGQGTLVTVSS VL: DIQLTQSPSFLSASVGDRVTITCRPSESVDSFGNSFMHWFQQKPGKAPKLLIYLSSKLESGVPSRFSGSGSGTEFTLTISSLQPEDFATYYCQQHNEDPFTFGQGTKVEIK | – |
